Reference: the domain aggregation screens of Martell et al. (2025)

Assay: soluble fraction after stress (log2 fold change); higher = more stays soluble; pooled small domains, quantitative proteomics
Details: stress: pH 4
In short: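 Custom libraries of small protein domains were pooled and measured with high-throughput quantitative proteomics after pH 4 stress. The read-out is the fold change in the amount of each domain that stays soluble after the acid stress, taken as a measure of aggregation propensity. Fold changes are on a log2 scale, and higher values mean more of the domain stayed soluble.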

Row | Sequence | soluble fraction (log2)
1 | HMDKSRPVLRVGDSGDWVSKLQTALLEFGYRVAVDGVFGEHTKSAVVHFQNGRRLIADGVVGNLTWDALL | -0.968
2 | HMDKWFPVSSDHKVQVGDYLRTADGLVKVEATHNEYGTFYGKIITAIHDDVVKGETYEYRIDDVQVLA | -1.77
3 | HMDLAPLQTVDIAINYAKAAELAAILKSSEGGILSDRGGVTVDERTNTLLIRDTLESIDEARKTI | -0.4
4 | HMDLATQHAAKVNAAILAARRFEREGSWRQVAAKYSEALQLMPGNEQASRGYQQAMAMLDERD | 0.41
5 | HMDLDSGVAVLRTLMSQHNLQTDDFQNEIGGKSMVSMILNGTRKLSKNHIQALSGRFNLSPALFF | -0.494
6 | HMDLEELSNKMNNVFESLSSDLRDIIIMSDIEGLSYEEISHKINIPIGTVRSRLHRARDLMVRVIKEN | -0.713
7 | HMDLGEQIIEKLRAAGGFLAITDKSPAEEIYELFATSKKNYKKAVGGLYKKGLLVIEDDGIRLTPAGR | ≥ 0.43
8 | HMDLHERISSVLLGTGKSNDELAQILGVNKNTISAYKNKHGDLKGIVLEGIVKHFDINPVWLLTGSGTR | 0.0745
9 | HMDLKSLEFAIVENVQRHDLNPLEEAQGYKRLIDEFSYDQDKVSKFIGKSRSYITNSLRLLNLPLEVLEF | -0.541
10 | HMDLKTNSQLINELEKKIKRPFDREIKNYLNKNLSTDRMISNNEIDKIILFYSGNNEIPNIEKISLILNDN | 0.0193
11 | HMDLPATVPNLEGLTEVTARNKLTVAGLSLGEVKEVESDKEKGTVVGQSIAYGKRVTKGTKVDIEISSGK | 0.318
12 | HMDLPDTLSMPNALKVLEDNGFPTSKAKLYKMTSQEQIPFMKYGNKLVFSRKALIEWAHKQLV | 0.301
13 | HMDLPREKRIEIGLTYIYGIGLKTSQKILAATGIDPNTRVKDLDETTVSKLREYIDHNYRVEGELRS | -0.217
14 | HMDLSLQTFNELKTELTNNKITIDQFSEKINEFDITSDIFEISRELFLDDTLSLEDYLVVIENVLIN | -0.782
15 | HMDLSQTVQAKALARVNVREGAGTHFKSLGKLKKGELLPVFRVGNSWASIWWKGRVAYVHTDYLRFESA | -0.153
16 | HMDLTKLFDHDSEYGKSYVFGKITDEMIARAEQTLGYRMPASYIELLKVQNGGMISDELDESWLTTIYGIG | -0.932
17 | HMDMAYEVVKAFHDLQDYKDVKGGKVYHHYDVGDTYPRQGLDPAPDETRIEELLSSGNAQGVPLIAEV | -0.219
18 | HMDMNVQNYRGLSLDRAKKLISDLGLKYEVVGTGDSVVKQVPSSGSRMSKENGRIILYTENVEDA | 0.278
19 | HMDMPLIGTAIRGWGIISPAQQETLIKMSILTVEDLAAINDEGIKRIGMGGLDLKNKAKAWLLQLK | -0.00985
20 | HMDMRLADLIGRDGITITFMRPSGKVEIDGEIYDAVSDVGLIDKNEEVEVIKFENAQLVVTKKNKN | 0.108
21 | HMDMSVDQFNQGIRGSELYQQFIHGRGLQQPDGKTREWTDADRNAWRRTLEASGVRIPDGMKIDNAGNLNE | -0.052
22 | HMDNEIIEEEKITTLMITHNMRDAIKYGNRLIMLNEGRVIFDISGEEKKNLTVQELLEKFEK | 0.22
23 | HMDNEIMYPIQINGKVRAELFVSTERAMDKQYVLEQAKANEKIQGYLEGNRLVKEIFVPKRIVNLVIAP | 0.184
24 | HMDNIEIGNRIREIRIKKNISVFELAYRTKTSQSHIYQIEGGSQNMSIELLFKIADTLETDPNTILGV | -2.25
25 | HMDNIPAHIKAKIINYVNRNYPGAIIKDIERKSNGRYEAEIVYNNREYDLLFDAQGNFISASLDDK | -0.32
26 | HMDNNFIQSLYPIAIGISKNQLDPWDLINGWVEYYLKNKEKYINHPNLKAVAVLKMKGLLIDHFRKS | -1.96
27 | HMDNPKGNLQEAVQAKGNEPIEYRVLNVDGPDHAREFKIAVFIGGKRKGTGVGNSKKKAEEIAAEKAFKRM | -0.189
28 | HMDNPVPVIITDQNFQPQLWKNVGVPTDTLFHELSAANQRKLENLMKTMIQTPLTDNGKISGYAFYSK | 0.152
29 | HMDNREKLRQEFLENLKELQEQNDIPQQEIDRVILDYDGVAEFLEDEGALKRYGGQLVDMTAYRAGAIPS | -2
30 | HMDNRLFKMLYYLLDKERATAPELAAEFEVSTRTIYRDVEALSSAGIPIYAEPGRNGGIYLLQD | -1.1
